Results published in article PMC9399681, “Structural insight into ASH1L PHD finger recognizing methylated histone H3K4 and promoting cell growth in prostate cancer” (Frontiers in Oncology, 2022).
Where a chain is given by its changes, count along the chain named. Primed or numbered codes have the meaning given here. Where no end group is shown, it is not given here. [ ]: non-standard residue; d: D form. Me3″ = trimethylation (trimethyl-lysine); Me2 = dimethylation (dimethyl-lysine); Lys(Me2) = CN(C)CCCC[C@H](N)C(=O)O

Columns and labels:
ASH1L PHD finger [1] = biological target: T1, ASH1L PHD finger (Mus musculus, UniProt Q99MY8); assay: ITC, ASH1L PHD finger with H3 peptides; assay type: binding, mASH1L; details: 1×PBS, 100-μM ZnCl2, pH 7.2; for binding by ITC, in words: 25°C
T1 construct: The mASH1L PHD domain (residue 2573–2624); MBP (cleaved yes); made in house; host or cells: Escherichia coli BL21 (DE3)
Description: The bacteria were grown in Luria Broth (LB) media, supplemented with 100-μM ZnCl2 (all PHD constructs). All PHD domains were expressed in Escherichia coli BL21 (DE3) cells and induced overnight with 0.5-mM isopropyl-β-D-1-thiogalactopyranoside (IPTG) at 22°C. In addition, the cells were harvested by centrifugation at 4,000 g. The harvested cells with MBP-tagged PHD were resuspended in buffer containing 25-mM Tris, pH 7.2, 1-M NaCl, 20-mM β-mercaptoethanol, 100-μM ZnCl2, and the Complete EDTA-free Protease Inhibitor (Roche, Mannheim, Germany). Following lysis in a microfluidizer (MFIC), cell debris was removed by centrifugation at 12,000 g for 1 h and the supernatant was loaded on a 5-ml MBPTrap HP column (GE Healthcare). The binding protein was eluted with buffer containing 25-mM Tris, pH 7.2, 500-mM NaCl, 20-mM β-mercaptoethanol, 20-mM maltose, and 100-μM ZnCl2. After TEV cleavage, the PHD domain was supplemented with 20-mM DTT and further purified using a Superdex 75 column (GE Healthcare, Uppsala, Sweden) in a final buffer containing 1×PBS, pH 7.2, 100- μM ZnCl2. […] The PHD protein was concentrated with a filter tube (Millipore, Co. Cork, Ireland) and measured by UV absorbance at 280 nm.
ITC assays were carried out on the MicroCal iTC200 System (Malvern) at 25°C while stirring at 750 rpm in the ITC buffer of pH 7.2, consisting of 1×PBS, 100-μM ZnCl2. […] The PHD or tandem Bromo-PHD protein sample of 100 µM was placed in the cell and titrated with 3 mM of a different peptide solution in the ITC buffer using a set of 31 injections of 1.2 μl, following a single initial injection of 0.2 μl. In the ITC measurements of PHD mutant samples, the H3 (1–15) peptides were diluted to the final concentrations of 1.5 mM, titrated with a single initial injection of 0.4 μl and followed with a set of 19 injections of 2 μl. Cumulative enthalpy exchange plots were derived from the raw thermal changes, using one set of a site-fitting model.

ASH1L PHD finger [2] = biological target: T1, ASH1L PHD finger; assay: 1H,15N HSQC chemical shift perturbation; assay type: binding, mASH1L; details: protein-to-peptide molar ratio 1:5; 298 K, 800 MHz, 1×PBS, pH 7.2, 100-μM ZnCl2
Description: The mASH1L PHD domain (residue 2573–2624) was subcloned into a modified pMAL-c5X expression vector (New England Biolabs, Ipswich, MA, US), which contains an MBP tag and a TEV cleavage site. The site-directed mutagenesis of D2573A, I2575A, D2584E, E2585A, M2588A, Q2590E, and W2597A in the PHD domain was generated using the PfuTurbo DNA polymerase (Agilent Technologies) and Dpn I restriction enzyme (New England Biolabs). After the MBP tag was cut by TEV, these proteins were used in ITC and NMR experiments. The His-tagged PHD domain was subcloned into a pGEX-4T1 expression vector. The base vector has a GST tag and was engineered to include a TEV cleavage site before a 5′ 6×His sequence. […]
The bacteria were grown in Luria Broth (LB) media, supplemented with 100-μM ZnCl2 (all PHD constructs). […] The size and purity of the purified protein were monitored by SDS-PAGE. The PHD protein was concentrated with a filter tube (Millipore, Co. Cork, Ireland) and measured by UV absorbance at 280 nm.
The ^1H,^15N HSQC spectra of the ^15N-labeled PHD finger were collected at 298 K on a Bruker 800-MHz NMR spectrometer equipped with the z-gradient triple-resonance cryoprobe. The binding was analyzed through monitoring chemical shift perturbations observed in the two-dimensional ^1H,^15N HSQC spectra of PHD finger upon the addition of H3 (aa 1-15) peptides (H3K4me, H3K4me2, H3K4me3). […]

[3] = biological target: mASH1L PHD domain (residue 2573–2624) E2585A (mouse, UniProt Q99MY8 2573-2624, E2585A); assay: ITC
[4] = biological target: mASH1L PHD domain (residue 2573–2624) W2597A (mouse, UniProt Q99MY8 2573-2624, W2597A); assay: ITC
[5] = biological target: mASH1L PHD domain (residue 2573–2624) Q2590E (mouse, UniProt Q99MY8 2573-2624, Q2590E); assay: ITC
[6] = biological target: mASH1L PHD domain (residue 2573–2624) D2573A (mouse, UniProt Q99MY8 2573-2624, D2573A); assay: ITC
[7] = biological target: mASH1L PHD domain (residue 2573–2624) M2588A (mouse, UniProt Q99MY8 2573-2624, M2588A); assay: ITC
[8] = biological target: T2, mASH1L PHD domain (residue 2573–2624) (mouse, UniProt Q99MY8 2573-2624); assay: ITC
T2 chain: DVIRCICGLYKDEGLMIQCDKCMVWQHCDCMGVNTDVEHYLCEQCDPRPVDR

[9] = biological target: T3, mASH1L PHD domain (residue 2573–2624) D2584E (mouse, UniProt Q99MY8 2573-2624, D2584E); assay: ITC; PHD mutants in the cell; H3 (1–15) peptides at 1.5 mM, 19 injections of 2 μl; 25°C, 1×PBS pH 7.2, 100 μM ZnCl2; one set of sites model; details: both partners purified
T3 construct: also called Asp2584 to Glu; source: E. coli BL21 (DE3), purified (MBPTrap, TEV cleavage, Superdex 75)
T3 sequence (looked up): T2 chain with D12E

[10] = biological target: T4, mASH1L PHD domain (residue 2573–2624) Q2590E (mouse, UniProt Q99MY8 2573-2624, Q2590E); assay: as above; details: both partners purified
T4 construct: also called Gln2590 to glutamate; source: E. coli BL21 (DE3), purified (MBPTrap, TEV cleavage, Superdex 75)
T4 sequence (looked up): T2 chain with Q18E

[11] = biological target: mASH1L PHD domain (residue 2573–2624) (mouse) (UniProt Q99MY8); assay: NMR titration; 1H,15N HSQC; 100 μM PHD domain titrated with 25 to 2,000 μM peptide; 1×PBS pH 7.2, 100 μM ZnCl2, 298 K; single-site binding model
[12] = biological target: mASH1L PHD domain (residue 2573–2624) (mouse) (UniProt Q99MY8); assay: ITC; MicroCal iTC200, 25°C, 1×PBS pH 7.2, 100 μM ZnCl2; 100 µM PHD or tandem Bromo-PHD in the cell, titrated with 3 mM peptide (31 injections of 1.2 μl); one set of sites model
[13] = biological target: T5, His-tagged Bromo-PHD tandem domain (residue 2425–2627) of mASH1L (mouse, UniProt Q99MY8 2425-2627); assay: as above; details: both partners purified
T5 construct: ASH1L (mASH1L), bromodomain and PHD finger in tandem, residues 2425-2627; pNIC-Bsa4 vector; no cleavage of the His tag is described; also called tandem Bromo-PHD protein; source: E. coli BL21 (DE3), purified (HiTrap IMAC FF, Superdex 75)

[14] = biological target: T6, mASH1L PHD domain (residue 2573–2624) (mouse, UniProt Q99MY8 2573-2624); assay: as above; details: both partners purified
T6 construct: 15N- or 13C-labelled for the NMR experiments; also called ASH1L PHD finger; source: E. coli BL21 (DE3), purified (MBPTrap, TEV cleavage, Superdex 75)

[15] = biological target: mASH1L PHD domain (residue 2573–2624) I2575A (mouse, UniProt Q99MY8 2573-2624, I2575A); assay: ITC

Molecule: CC(C)[C@H](NC(=O)CNC(=O)CNC(=O)[C@@H](NC(=O)[C@H](C)NC(=O)[C@@H]1CCCN1C(=O)[C@H](C)N)[C@@H](C)O)C(=O)N[C@@H](CCCCN(C)C)C(=O)N[C@@H](CCCCN)C(=O)N1CCC[C@H]1C(=O)N[C@@H](Cc1c[nH]cn1)C(=O)N[C@@H](CCCNC(=N)N)C(=O)N[C@@H](Cc1ccc(O)cc1)C(=O)N[C@@H](CCCNC(=N)N)C(=O)N1CCC[C@H]1C(=O)O [H3K36me2]
- binding by ITC, in words (ASH1L PHD finger [1]): weak binding affinity
- HSQC chemical shift perturbation (ASH1L PHD finger [2]): binds with methylated H3K4 peptides but not H3K4me0, H3K9me2, or H3K36me2 peptides

Molecule: C[C@H](NC(=O)[C@@H](NC(=O)[C@H](CCC(N)=O)NC(=O)[C@H](CCCCN)NC(=O)[C@@H](NC(=O)[C@@H](N)CCCNC(=N)N)[C@@H](C)O)[C@@H](C)O)C(=O)N[C@@H](CCCNC(=N)N)C(=O)N[C@@H](CCCCN(C)C)C(=O)N[C@@H](CO)C(=O)N[C@H](C(=O)NCC(=O)NCC(=O)N[C@@H](CCCCN)C(=O)N[C@@H](C)C(=O)N1CCC[C@H]1C(=O)O)[C@@H](C)O [H3K9me2]
- binding by ITC, in words (ASH1L PHD finger [1]): weak binding affinity
- Kd (ASH1L PHD finger [1]; MicroCal iTC200, 25°C, 100 µM protein titrated with 3 mM peptide, H3 (1–15) peptides, H3 (2–16) K9me2, H3 (29–43) K36me2): > 500 µM
- HSQC chemical shift perturbation (ASH1L PHD finger [2]): binds with methylated H3K4 peptides but not H3K4me0, H3K9me2, or H3K36me2 peptides

B1: histone H3 (1–15) peptide, monomethylated on lysine 4 (peptide, UniProt P68431 2-16, looked up)
peptide: ARTK(Me)QTARKSTGGKA
notes: histone H3, residues 1-15; also called H3K4me1; H3K4me; source: synthetic peptide (MIMOYOPES, Wuxi, China)
- Kd [3]: 140 µM
- Kd [4]: > 200 µM
- Kd [5]: 31 µM
- Kd [6]: 188 µM
- Kd [7]: > 200 µM
- Kd [8]: 41 µM
- Kd [9]: ~54 µM
- binding result [10]: binds
- Kd [11]: 181 µM
- Kd [12]: 75 µM
- Kd [13]: ~64 µM

B2: histone H3 (2–16) peptide with dimethylation on lysine 9 (peptide, UniProt P68431 3-17, looked up)
peptide: RTKQTARK(Me2)STGGKAP
notes: histone H3, residues 2-16; also called H3K9me2; source: synthetic peptide (MIMOYOPES, Wuxi, China)
- Kd [14]: > 500 µM

B3: histone H3 (1–15) peptide, dimethylated on lysine 4 (peptide)
peptide: ART[Lys(Me2)]QTARKSTGGKA
notes: also called H3K4me2; H3K4me2 peptide (1–15); source: synthetic peptide (MIMOYOPES, Wuxi, China)
- Kd [3]: 174 µM
- Kd [4]: > 200 µM
- Kd [5]: 35 µM
- Kd [6]: 71 µM
- Kd [7]: > 200 µM
- Kd [15]: > 200 µM
- Kd [9]: ~26 µM
- binding result [10]: binds
- Kd [11]: 238 µM
- Kd [12]: 39 µM
- Kd [13]: ~29 µM

Molecule: APATGGVK(Me2)KPHRYRP [histone H3 (29–43) peptide with dimethylation on lysine 36]
- Kd [14]: > 500 µM

B4: histone H3 (1–15) peptide, trimethylated on lysine 4 (peptide, UniProt P68431 2-16, looked up)
peptide: ARTK(Me3″)QTARKSTGGKA
notes: histone H3, residues 1-15; also called H3K4me3; source: synthetic peptide (MIMOYOPES, Wuxi, China)
- Kd [3]: 49 µM
- Kd [4]: > 200 µM
- Kd [5]: 33 µM
- Kd [6]: 86 µM
- Kd [7]: > 200 µM
- Kd [15]: 103 µM
- Kd [8]: 33 µM
- Kd [9]: ~38 µM
- binding result [10]: binds
- Kd [11]: 106 µM
- Kd [12]: 64 µM
- Kd [13]: ~48 µM

B5: histone H3 (1–15) peptide, unmethylated on lysine 4 (peptide, UniProt P68431 2-16, looked up)
peptide: ARTKQTARKSTGGKA
notes: histone H3, residues 1-15; also called H3K4; H3K4me0; source: synthetic peptide (MIMOYOPES, Wuxi, China)
- Kd [12]: > 300 µM
- Kd [13]: > 500 µM
